# Laboratory results published in the supplement of paper PMC10567573.
# B1: DYRK1B (parent)
# chain: KKVLNHGYDDDNHDYIVRSGERWL
# Variants of: B1
# Test: protein stability index of a GFP-peptide fusion (GPS, HEK-293T) (PSI 1-6); higher = more stable
# Settings: c terminus: a fixed tail appended
# 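Further: lentivirally expressed fusions sorted by FACS into six bins by GFP to DsRed ratio, PSI derived from sequencing read proportions per bin multiplied by bin number.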
row,Variant,protein stability index
1,KKVLPHGYDDDNHDYIVRSGERWL [N5P],3.39
2,KKVLEHGYDDDNHDYIVRSGERWL [N5E],3.46
3,KKVLHHGYDDDNHDYIVRSGERWL [N5H],2.89
4,KKVLRHGYDDDNHDYIVRSGERWL [N5R],2.92
5,KKVLCHGYDDDNHDYIVRSGERWL [N5C],2.84
6,KKVLLHGYDDDNHDYIVRSGERWL [N5L],3.01
7,KKVLQHGYDDDNHDYIVRSGERWL [N5Q],3.01
8,KKVLAHGYDDDNHDYIVRSGERWL [N5A],2.88
9,KKVLYHGYDDDNHDYIVRSGERWL [N5Y],2.33
10,KKVLWHGYDDDNHDYIVRSGERWL [N5W],2.72
11,KKVLTHGYDDDNHDYIVRSGERWL [N5T],2.57
12,KKVLIHGYDDDNHDYIVRSGERWL [N5I],2.82
13,KKVLMHGYDDDNHDYIVRSGERWL [N5M],2.8
14,KKVLVHGYDDDNHDYIVRSGERWL [N5V],3.22
15,KKVLKHGYDDDNHDYIVRSGERWL [N5K],2.97
16,KKVLGHGYDDDNHDYIVRSGERWL [N5G],3.42
17,KKVLFHGYDDDNHDYIVRSGERWL [N5F],2.7
18,KKVLDHGYDDDNHDYIVRSGERWL [N5D],3.41
19,KKVLSHGYDDDNHDYIVRSGERWL [N5S],2.67
20,KKVLNKGYDDDNHDYIVRSGERWL [H6K],3.52
21,KKVLNAGYDDDNHDYIVRSGERWL [H6A],2.81
22,KKVLNDGYDDDNHDYIVRSGERWL [H6D],3.48
23,KKVLNTGYDDDNHDYIVRSGERWL [H6T],3.12
24,KKVLNNGYDDDNHDYIVRSGERWL [H6N],3.38

row,Variant,protein stability index
1,KKVLNSGYDDDNHDYIVRSGERWL [H6S],3.22
2,KKVLNFGYDDDNHDYIVRSGERWL [H6F],2.4
3,KKVLNMGYDDDNHDYIVRSGERWL [H6M],2.34
4,KKVLNRGYDDDNHDYIVRSGERWL [H6R],2.91
5,KKVLNWGYDDDNHDYIVRSGERWL [H6W],2.01
6,KKVLNGGYDDDNHDYIVRSGERWL [H6G],3.26
7,KKVLNPGYDDDNHDYIVRSGERWL [H6P],3.27
8,KKVLNQGYDDDNHDYIVRSGERWL [H6Q],3.32
9,KKVLNCGYDDDNHDYIVRSGERWL [H6C],2.38
10,KKVLNLGYDDDNHDYIVRSGERWL [H6L],2.51
11,KKVLNYGYDDDNHDYIVRSGERWL [H6Y],3.12
12,KKVLNVGYDDDNHDYIVRSGERWL [H6V],2.84
13,KKVLNEGYDDDNHDYIVRSGERWL [H6E],3.44
14,KKVLNIGYDDDNHDYIVRSGERWL [H6I],3.01
15,KKVLNHGYMDDNHDYIVRSGERWL [D9M],2.83
16,KKVLNHGYRDDNHDYIVRSGERWL [D9R],2.74
17,KKVLNHGYPDDNHDYIVRSGERWL [D9P],3.12
18,KKVLNHGYCDDNHDYIVRSGERWL [D9C],2.96
19,KKVLNHGYWDDNHDYIVRSGERWL [D9W],1.53
20,KKVLNHGYADDNHDYIVRSGERWL [D9A],2.89
21,KKVLNHGYGDDNHDYIVRSGERWL [D9G],2.51
22,KKVLNHGYIDDNHDYIVRSGERWL [D9I],2.52
23,KKVLNHGYVDDNHDYIVRSGERWL [D9V],2.67
24,KKVLNHGYYDDNHDYIVRSGERWL [D9Y],2.17

row,Variant,protein stability index
1,KKVLNHGYNDDNHDYIVRSGERWL [D9N],2.63
2,KKVLNHGYEDDNHDYIVRSGERWL [D9E],3.96
3,KKVLNHGYLDDNHDYIVRSGERWL [D9L],2.39
4,KKVLNHGYHDDNHDYIVRSGERWL [D9H],2.74
5,KKVLNHGYQDDNHDYIVRSGERWL [D9Q],2.94
6,KKVLNHGYSDDNHDYIVRSGERWL [D9S],2.34
7,KKVLNHGYKDDNHDYIVRSGERWL [D9K],2.87
8,KKVLNHGYTDDNHDYIVRSGERWL [D9T],2.75
9,KKVLNHGYFDDNHDYIVRSGERWL [D9F],2.61
10,KKVLNHGIDDDNHDYIVRSGERWL [Y8I],3.27
11,KKVLNHGHDDDNHDYIVRSGERWL [Y8H],4.27
12,KKVLNHGSDDDNHDYIVRSGERWL [Y8S],3.66
13,KKVLNHGGDDDNHDYIVRSGERWL [Y8G],3.56
14,KKVLNHGVDDDNHDYIVRSGERWL [Y8V],3.58
15,KKVLNHGMDDDNHDYIVRSGERWL [Y8M],3.48
16,KKVLNHGRDDDNHDYIVRSGERWL [Y8R],4.28
17,KKVLNHGDDDDNHDYIVRSGERWL [Y8D],3.87
18,KKVLNHGFDDDNHDYIVRSGERWL [Y8F],3.46
19,KKVLNHGKDDDNHDYIVRSGERWL [Y8K],3.58
20,KKVLNHGLDDDNHDYIVRSGERWL [Y8L],3.36
21,KKVLNHGTDDDNHDYIVRSGERWL [Y8T],3.74
22,KKVLNHGADDDNHDYIVRSGERWL [Y8A],3.82
23,KKVLNHGPDDDNHDYIVRSGERWL [Y8P],3.24
24,KKVLNHGNDDDNHDYIVRSGERWL [Y8N],4.15

row,Variant,protein stability index
1,KKVLNHGWDDDNHDYIVRSGERWL [Y8W],2.74
2,KKVLNHGEDDDNHDYIVRSGERWL [Y8E],3.71
3,KKVLNHGCDDDNHDYIVRSGERWL [Y8C],3.24
4,KKVLNHGQDDDNHDYIVRSGERWL [Y8Q],3.77
5,KKVLNHGYDDDNPDYIVRSGERWL [H13P],3.57
6,KKVLNHGYDDDNMDYIVRSGERWL [H13M],2.58
7,KKVLNHGYDDDNLDYIVRSGERWL [H13L],2.59
8,KKVLNHGYDDDNADYIVRSGERWL [H13A],3.06
9,KKVLNHGYDDDNNDYIVRSGERWL [H13N],3.07
10,KKVLNHGYDDDNGDYIVRSGERWL [H13G],3.27
11,KKVLNHGYDDDNEDYIVRSGERWL [H13E],4.24
12,KKVLNHGYDDDNVDYIVRSGERWL [H13V],2.96
13,KKVLNHGYDDDNQDYIVRSGERWL [H13Q],3.68
14,KKVLNHGYDDDNIDYIVRSGERWL [H13I],2.79
15,KKVLNHGYDDDNYDYIVRSGERWL [H13Y],2.64
16,KKVLNHGYDDDNWDYIVRSGERWL [H13W],2.44
17,KKVLNHGYDDDNDDYIVRSGERWL [H13D],3.73
18,KKVLNHGYDDDNRDYIVRSGERWL [H13R],3.77
19,KKVLNHGYDDDNFDYIVRSGERWL [H13F],1.95
20,KKVLNHGYDDDNCDYIVRSGERWL [H13C],2.54
21,KKVLNHGYDDDNKDYIVRSGERWL [H13K],3.59
22,KKVLNHGYDDDNTDYIVRSGERWL [H13T],3.35
